Data published in paper PMC4650548.

Target: NBS1 (UniProt O60934)
Assay: biotin-peptide streptavidin pull-down from lysate

PHRF1 908-924 (from UniProt Q9P1Y6) pSDpTE peptide
binding against the reference (reference: SDpTE peptide, sites S915): gained | binding against the reference (reference: pSDTE peptide, sites T917): gained
